Some results are limits rather than exact numbers.

The target of assay [1] is T1, NdmA (wild-type caffeine N1-demethylase) (UniProt H9N289).
T1 sequence (looked up): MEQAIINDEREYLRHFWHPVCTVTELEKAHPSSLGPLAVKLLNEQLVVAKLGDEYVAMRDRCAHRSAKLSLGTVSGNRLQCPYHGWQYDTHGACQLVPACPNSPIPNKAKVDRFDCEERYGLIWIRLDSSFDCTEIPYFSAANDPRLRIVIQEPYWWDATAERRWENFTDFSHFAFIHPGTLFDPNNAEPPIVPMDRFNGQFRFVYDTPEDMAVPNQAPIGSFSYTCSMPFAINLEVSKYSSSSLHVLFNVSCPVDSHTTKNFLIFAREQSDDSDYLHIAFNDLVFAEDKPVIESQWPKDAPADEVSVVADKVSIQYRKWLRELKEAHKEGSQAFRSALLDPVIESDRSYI
The assay is described as follows: cell-based or functional assay.

Assay [2] deals with T2, NdmB (wild-type theobromine N3-demethylase) (UniProt H9N290).
T2 sequence (looked up): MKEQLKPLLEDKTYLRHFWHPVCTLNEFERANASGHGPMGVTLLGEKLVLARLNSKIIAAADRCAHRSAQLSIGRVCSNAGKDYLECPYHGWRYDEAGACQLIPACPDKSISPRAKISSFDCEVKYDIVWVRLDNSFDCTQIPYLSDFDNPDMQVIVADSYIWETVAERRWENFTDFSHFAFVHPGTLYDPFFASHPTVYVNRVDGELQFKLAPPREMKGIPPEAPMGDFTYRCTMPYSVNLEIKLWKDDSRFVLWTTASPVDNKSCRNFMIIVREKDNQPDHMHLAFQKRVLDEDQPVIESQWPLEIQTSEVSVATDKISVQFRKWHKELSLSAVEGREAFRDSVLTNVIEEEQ
The experiment in a line: cell-based or functional assay.

B1: NdmD V541W mutant (NdmDW) (enzyme, UniProt H9N291 1-588, looked up)
chain: MNKLDVNQWFPIATTEDLPKRHVFHATLLGQEMAIWRDDSGSVNAWENRCPHRGLRLTLGANTGNELRCQYHGWTYESGTGGCTFVPAHRDAPPPNAARVNTFPVREKHGFIWTTLGQPPGEPISILDDAQLVNAVKTNLHSVVIDADIDGVVSVLRQNLSAFIDVFGAASAEDLHLKSMLQDRGILVTRSGSIAIHFYMQRSTISKCVVHAQVLTPGRPGYELQKNYSYAMNVIRRAAEAVATDLISITDISDQTIEKLEVVRENMTKAPPTHYICEVVTRTQETGDINSYWLKPIGYPLPAFSPGMHISITTPEGSIRQYSLVNGPDERESFIIGVKKEIQSRGGSRSMHEDVKVGTQLKVTLPRNGFPLVQTRKHPILVAGGIGITPILCMAQALDQQGSSYEIHYFARAFEHVPFQDRLTALGDRLNVHLGLGPDETRAKLPDIMEIHNAQDVDVYTCGPQPMIETVSAVALAHGIAEESIRFEFFSKKNDVPVSDEEYEVELKKTGQIFTVSPGSTLLQACLDNDVRIEASCEQGWCGTCITPVVSGDLEHHDTYLSKKERESGKWIMPCVSRCKSKKIVLDL
For the molecule B1, in assay [1], the N1-demethylase activity in NdmA cells, lower than in cells with the wild type reductase was 7 % lower and the remaining N-demethylase activity in the in vivo assays (% of the wild-type enzyme) was greater than 60. In addition, in assay [2], the N3-demethylase activity in NdmB cells, reduction stood at 36 % reduced and the remaining N-demethylase activity in the in vivo assays (% of the wild-type enzyme) is greater than 60.

B2: NdmD V541R mutant (NdmDR) (enzyme, UniProt H9N291 1-588, looked up)
chain: MNKLDVNQWFPIATTEDLPKRHVFHATLLGQEMAIWRDDSGSVNAWENRCPHRGLRLTLGANTGNELRCQYHGWTYESGTGGCTFVPAHRDAPPPNAARVNTFPVREKHGFIWTTLGQPPGEPISILDDAQLVNAVKTNLHSVVIDADIDGVVSVLRQNLSAFIDVFGAASAEDLHLKSMLQDRGILVTRSGSIAIHFYMQRSTISKCVVHAQVLTPGRPGYELQKNYSYAMNVIRRAAEAVATDLISITDISDQTIEKLEVVRENMTKAPPTHYICEVVTRTQETGDINSYWLKPIGYPLPAFSPGMHISITTPEGSIRQYSLVNGPDERESFIIGVKKEIQSRGGSRSMHEDVKVGTQLKVTLPRNGFPLVQTRKHPILVAGGIGITPILCMAQALDQQGSSYEIHYFARAFEHVPFQDRLTALGDRLNVHLGLGPDETRAKLPDIMEIHNAQDVDVYTCGPQPMIETVSAVALAHGIAEESIRFEFFSKKNDVPVSDEEYEVELKKTGQIFTVSPGSTLLQACLDNDVRIEASCEQGRCGTCITPVVSGDLEHHDTYLSKKERESGKWIMPCVSRCKSKKIVLDL
For the molecule B2, in assay [1], the N1-demethylase activity in NdmA cells, lower than in cells with the wild type reductase was 30 % lower and the remaining N-demethylase activity in the in vivo assays (% of the wild-type enzyme) was greater than 60. Further, in assay [2], the N3-demethylase activity in NdmB cells, reduction amounted to 20 % reduced and the remaining N-demethylase activity in the in vivo assays (% of the wild-type enzyme) was greater than 60.

For the origin of these results see patent US20230193332A1.
